Laboratory results: PMC6016250

How the values were obtained:
[1] = target: Toll-like receptor 4 on the surface of RAW 264.7 murine macrophages (mouse (endogenous in RAW 264.7)) (UniProt Q9QUK6)
[2] = target: Toll-like receptor 4 on the surface of RAW 264.7 murine macrophages (mouse (endogenous in RAW 264.7)) (UniProt Q9QUK6); remark: listed apart in the source
[3] = target: Toll-like receptor 4 on the surface of RAW 264.7 murine macrophages (mouse (endogenous in RAW 264.7)) (UniProt Q9QUK6); remark: listed apart in the source

Chain of UniProt Q9QUK6 (Q9QUK6 26-835): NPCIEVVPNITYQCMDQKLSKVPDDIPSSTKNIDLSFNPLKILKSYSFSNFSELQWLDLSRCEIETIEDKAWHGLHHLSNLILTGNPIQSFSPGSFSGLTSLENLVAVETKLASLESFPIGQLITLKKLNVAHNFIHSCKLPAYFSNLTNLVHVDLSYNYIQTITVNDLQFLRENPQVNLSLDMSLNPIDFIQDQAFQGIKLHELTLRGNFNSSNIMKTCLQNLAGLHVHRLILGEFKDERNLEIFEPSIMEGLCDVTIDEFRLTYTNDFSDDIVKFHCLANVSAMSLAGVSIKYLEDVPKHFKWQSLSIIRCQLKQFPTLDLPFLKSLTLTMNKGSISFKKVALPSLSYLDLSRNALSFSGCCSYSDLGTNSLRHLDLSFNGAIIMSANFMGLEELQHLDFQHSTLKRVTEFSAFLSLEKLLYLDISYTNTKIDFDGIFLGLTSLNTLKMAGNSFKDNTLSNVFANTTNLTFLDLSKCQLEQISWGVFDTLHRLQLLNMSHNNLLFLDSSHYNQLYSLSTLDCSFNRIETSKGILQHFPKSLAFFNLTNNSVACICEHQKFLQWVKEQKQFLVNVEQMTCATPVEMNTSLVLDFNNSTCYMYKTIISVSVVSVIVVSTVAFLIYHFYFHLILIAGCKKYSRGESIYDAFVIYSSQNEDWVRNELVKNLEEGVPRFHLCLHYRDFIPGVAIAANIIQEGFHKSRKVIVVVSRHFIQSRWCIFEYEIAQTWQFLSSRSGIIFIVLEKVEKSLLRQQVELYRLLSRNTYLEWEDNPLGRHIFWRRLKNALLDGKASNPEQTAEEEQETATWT

Work on “recombinant Rv0297PGRS (PGRS domain of the Mycobacterium tuberculosis PE_PGRS protein Rv0297) (from UniProt Q6MX50 1-591) (domain or fragment)” yielded a mortality of RAW 264.7 macrophages (alamarBlue assay, 48 h) with 2.5, 5, 10, 20 and 40 µg/ml rRv0297PGRS (12.42% to 36.07%); no significant change in RAW-ΔTLR4 cells [1] of 36.1%, a total percentage of apoptotic RAW 264.7 cells (annexin V/PI staining) with 20 and 40 µg/ml rRv0297PGRS (43.83% and 58.37%) [2] of 58.4% and a fold increase of NO (Griess reagent) in RAW 264.7 cells stimulated with 20 µg/ml rRv0297PGRS for 30 h in contrast to unstimulated cells; unchanged in RAW-ΔTLR4 cells [3] of 2 fold. It also gave a fold increment of ROS (CellROX green) in RAW 264.7 cells stimulated with rRv0297PGRS for 30 h compared to untreated cells (1.53 and 1.80); unchanged in RAW-ΔTLR4 cells [3] of 1.8 fold.
